Assay results: patent US20240360179A1
Each block holds one substance with its values, some of them ahead of it.

Key:
[1] = target: full-length B-Catenin (Uniprot ID P35222) (human); test: competition fluorescence polarization, displacement of 5FAM-TCF4
[2] = target: beta-catenin fused to HaloTag (Bcat-Halo NanoBRET construct), expressed in HEK293 cells (UniProt P35222); test: NanoBRET Abs IC50 in HEK293 cells, beta-catenin-HaloTag against TCF4-NanoLuc
[3] = target: endogenous beta-catenin in cells (DLD1, HAP1 WT) (human); test: cell-based or functional assay
[4] = target: beta-catenin fused to HaloTag (NanoBRET acceptor construct), expressed in HEK293 cells (UniProt P35222); test: NanoBRET in HEK293 cells, beta-catenin-HaloTag against TCF4-NanoLuc
[5] = target: full-length B-Catenin (Uniprot ID P35222) (human); test: competition fluorescence polarization
[6] = target: beta-catenin in DLD1 TCF reporter cells (UniProt P35222); test: cell-based or functional assay
[7] = target: full-length beta-catenin (Uniprot ID P35222) (human); test: competition fluorescence polarization

Chain of beta-catenin fused to HaloTag (Bcat-Halo NanoBRET construct), expressed in HEK293 cells (P35222 whole entry, the tested form may be a part): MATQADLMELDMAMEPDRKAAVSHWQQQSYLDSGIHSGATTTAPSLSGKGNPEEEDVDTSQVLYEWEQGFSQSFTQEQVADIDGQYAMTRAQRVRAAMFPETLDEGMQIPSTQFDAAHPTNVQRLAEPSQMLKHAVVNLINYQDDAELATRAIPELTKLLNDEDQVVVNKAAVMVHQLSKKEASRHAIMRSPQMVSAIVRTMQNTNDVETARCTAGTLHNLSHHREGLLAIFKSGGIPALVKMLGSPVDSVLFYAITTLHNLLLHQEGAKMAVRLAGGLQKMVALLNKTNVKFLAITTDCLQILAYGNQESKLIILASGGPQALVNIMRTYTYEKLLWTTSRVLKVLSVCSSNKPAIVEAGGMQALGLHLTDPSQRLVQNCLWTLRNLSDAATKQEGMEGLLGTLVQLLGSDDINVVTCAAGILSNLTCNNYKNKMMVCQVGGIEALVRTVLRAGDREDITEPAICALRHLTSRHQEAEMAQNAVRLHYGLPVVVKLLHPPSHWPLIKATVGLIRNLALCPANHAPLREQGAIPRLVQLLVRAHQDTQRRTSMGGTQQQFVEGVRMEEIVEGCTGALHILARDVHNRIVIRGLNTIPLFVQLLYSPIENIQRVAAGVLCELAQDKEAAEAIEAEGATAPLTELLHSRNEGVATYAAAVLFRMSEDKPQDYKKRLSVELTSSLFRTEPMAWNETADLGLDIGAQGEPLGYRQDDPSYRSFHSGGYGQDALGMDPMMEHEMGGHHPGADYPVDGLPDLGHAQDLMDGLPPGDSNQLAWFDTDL
Chain of beta-catenin in DLD1 TCF reporter cells (P35222 2-781 limits assumed): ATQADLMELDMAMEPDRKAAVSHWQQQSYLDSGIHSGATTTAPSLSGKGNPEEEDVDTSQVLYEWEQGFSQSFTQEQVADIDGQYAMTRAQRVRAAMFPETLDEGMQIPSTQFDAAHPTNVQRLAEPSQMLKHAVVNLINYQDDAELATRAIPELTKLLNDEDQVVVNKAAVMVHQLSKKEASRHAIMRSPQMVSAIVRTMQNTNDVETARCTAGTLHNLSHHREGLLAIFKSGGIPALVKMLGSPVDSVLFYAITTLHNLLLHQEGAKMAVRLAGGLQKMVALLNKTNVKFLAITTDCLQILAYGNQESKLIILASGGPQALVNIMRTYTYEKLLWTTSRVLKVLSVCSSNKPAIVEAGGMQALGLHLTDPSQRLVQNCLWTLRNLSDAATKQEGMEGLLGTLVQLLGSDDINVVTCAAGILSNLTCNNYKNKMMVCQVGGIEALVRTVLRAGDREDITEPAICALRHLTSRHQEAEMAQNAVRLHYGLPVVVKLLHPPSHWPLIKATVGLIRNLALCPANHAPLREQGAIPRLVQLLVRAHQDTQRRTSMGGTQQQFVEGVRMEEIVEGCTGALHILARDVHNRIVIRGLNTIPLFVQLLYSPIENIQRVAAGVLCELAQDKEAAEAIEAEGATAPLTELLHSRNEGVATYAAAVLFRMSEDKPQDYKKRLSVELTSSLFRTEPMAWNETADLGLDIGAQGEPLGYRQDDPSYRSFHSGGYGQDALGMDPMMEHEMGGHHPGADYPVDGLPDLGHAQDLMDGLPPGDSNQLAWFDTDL
Chain of full-length B-Catenin (Uniprot ID P35222) (human) (P35222 whole entry, the tested form may be a part): as the sequence (P35222 whole entry, the tested form may be a part) above
Chain of endogenous beta-catenin in cells (DLD1, HAP1 WT) (human) (P35222 2-781): as the sequence (P35222 2-781 limits assumed) above
Chain of beta-catenin fused to HaloTag (NanoBRET acceptor construct), expressed in HEK293 cells (P35222 whole entry, the tested form may be a part): as the sequence (P35222 whole entry, the tested form may be a part) above

- IC50 [1]: < 50 nM
Substance: Ac-PL3-Asp-Npg-B5-Asp-dGlu-Aib-Ala-Phe-Lys*3-PyrS2-2F3MeF-BztA-GlnR*3-Ala-NH2 (peptide)

- IC50 [1]: < 50 nM
Substance: Ac-PL3-Asp-Npg-B5-Asp-5F3Me3COOHF-Aib-Ala-Phe-Lys*3-PyrS2-2F3MeF-BztA-GlnR*3-Ala-NH2 (peptide)

- IC50 [2]: > 3000 nM
Substance: Ac-PL3-Asp-Npg-B5-Asp-Glu-Aib-Ala-Phe-Lys*3-PyrS2-2F3MeF-BztA-GlnR*3-Ala-NH2 (peptide)

- AXIN2 expression in DLD1 cells, IC50 [3]: 9300 nM
- SP5 expression in DLD1 cells, IC50 [3]: 9000 nM
- IC50 [4]: 3000 nM
Substance: Peptide A

- IC50 [5]: < 50 nM
Substance: 123TriAc-PL3-Asp-Npg-B5-Asp-3COOHF-Aib-Ala-Phe-Lys*3-PyrS2-3Thi-BztA-GlnR*3-Ala-NH2 (peptide)

- IC50 [2]: > 3000 nM
Substance: Ac-PL3-Asp-Npg-B5-Asp-Asn-Aib-Ala-Phe-Lys*3-PyrS2-2F3MeF-BztA-GlnR*3-Ala-NH2 (peptide)

- IC50 [5]: < 50 nM
Substance: 3PyPrpc-PL3-Asp-Npg-B5-Asp-3COOHF-Aib-Ala-Phe-Lys*3-PyrS2-3Thi-BztA-GlnR*3-Ala-NH2 (peptide)

- IC50 [2]: > 3000 nM
Substance: Ac-PL3-Asp-Npg-B5-Asp-aThr-Aib-Ala-Phe-Lys*3-PyrS2-2F3MeF-BztA-GlnR*3-Ala-NH2 (peptide)

- IC50 [5]: < 50 nM
Substance: 4PyPrpc-PL3-Asp-Npg-B5-Asp-3COOHF-Aib-Ala-Phe-Lys*3-PyrS2-3Thi-BztA-GlnR*3-Ala-NH2 (I-1070) (peptide)

- IC50 [2]: > 3000 nM
Substance: Ac-PL3-Asp-Npg-B5-Asp-3F2COOHF-Aib-Ala-Phe-Lys*3-PyrS2-2F3MeF-BztA-GlnR*3-Ala-NH2 (peptide)

- IC50 [2]: > 3000 nM
Substance: Ac-PL3-Asp-Npg-B5-Asp-Ala-Aib-Ala-Phe-Lys*3-PyrS2-2F3MeF-BztA-GlnR*3-Ala-NH2 (peptide)

- IC50 [5]: < 50 nM
Substance: 3Py Ac-PL3-Asp-Npg-B5-Asp-3COOHF-Aib-Ala-Phe-Lys*3-PyrS2-3Thi-BztA-GlnR*3-Ala-NH2 (peptide)

- beta-catenin TCF4 DLD1 cell reporter assay IC50 [6]: 9800 nM
Substance: C-1: Ac-PL3-Asp-Npg-B5-Asp-3COOHF-Ala-Ala-Phe-Leu-PyrS2-2F3MeF-BztA-Gln-NH2 (peptide)

- IC50 [7]: 93 nM
Substance: I-377: Ac-PL3-Asp-Npg-B5-Asp-3COOHF-Aib-Ala-Phe-[pXyl]Cys-PyrS2-2F3MeF-BztA-Cys-Ala-NH2 (peptide)

- IC50 [2]: > 3000 nM
Substance: Ac-PL3-Asp-Npg-B5-Asp-5F3Me2COOHF-Aib-Ala-Phe-Lys*3-PyrS2-2F3MeF-BztA-GlnR*3-Ala-NH2 (peptide)

- beta-catenin TCF4 DLD1 cell reporter assay IC50 [6]: > 20000 nM
- IC50 [7]: 58 nM
Substance: I-566: Ac-PL3-Asp-Npg-B5-Asp-3COOHF-Aib-Ala-Phe-[2_6-naph]Cys-PyrS2-3Thi-BztA-Cys-Ala-NH2 (peptide)

- IC50 [5]: < 50 nM
Substance: 5PymAc-PL3-Asp-Npg-B5-Asp-3COOHF-Aib-Ala-Phe-Lys*3-PyrS2-3Thi-BztA-GlnR*3-Ala-NH2 (peptide)

- IC50 [2]: > 3000 nM
Substance: Ac-PL3-Asp-Npg-B5-Asp-Ser-Aib-Ala-Phe-Lys*3-PyrS2-2F3MeF-BztA-GlnR*3-Ala-NH2 (peptide)

- IC50 [5]: < 50 nM
Substance: 1PydoneAc-PL3-Asp-Npg-B5-Asp-3COOHF-Aib-Ala-Phe-Lys*3-PyrS2-3Thi-BztA-GlnR*3-Ala-NH2 (peptide)

- beta-catenin TCF4 DLD1 cell reporter assay IC50 [6]: > 20000 nM
- IC50 [7]: 120 nM
Substance: I-567: Ac-PL3-Asp-Npg-B5-Asp-3COOHF-Aib-Ala-Phe-[3_3-biph]Cys-PyrS2-3Thi-BztA-Cys-Ala-NH2 (peptide)

- IC50 [2]: > 3000 nM
Substance: Ac-PL3-Asp-Npg-B5-Asp-Asp-Aib-Ala-Phe-Lys*3-PyrS2-2F3MeF-BztA-GlnR*3-Ala-NH2 (peptide)

- IC50 [2]: > 3000 nM
Substance: Ac-PL3-Asp-Npg-B5-Asp-Gln-Aib-Ala-Phe-Lys*3-PyrS2-2F3MeF-BztA-GlnR*3-Ala-NH2 (peptide)

- IC50 [7]: 220 nM
Substance: I-376: Ac-PL3-Asp-Npg-B5-Asp-3COOHF-Aib-Ala-Phe-[oXyl]Cys-PyrS2-2F3MeF-BztA-Cys-Ala-NH2 (peptide)

- IC50 [2]: < 3000 nM
Substance: Ac-PL3-Asp-Npg-B5-Asp-4F3Me3COOHF-Aib-Ala-Phe-Lys*3-PyrS2-2F3MeF-BztA-GlnR*3-Ala-NH2 (peptide)

- IC50 [2]: < 3000 nM
Substance: Ac-PL3-Asp-Npg-B5-Asp-2COOHF-Aib-Ala-Phe-Lys*3-PyrS2-2F3MeF-BztA-GlnR*3-Ala-NH2 (peptide)

- IC50 [2]: > 3000 nM
Substance: Ac-PL3-Asp-Npg-B5-Asp-4F3Me2COOHF-Aib-Ala-Phe-Lys*3-PyrS2-2F3MeF-BztA-GlnR*3-Ala-NH2 (peptide)

- IC50 [5]: < 50 nM
Substance: 4PyPrpc-PL3-Asp-Npg-B5-Asp-3COOHF-Aib-Ala-Phe-Lys*3-PyrS2-3Thi-BztA-GlnR*3-Ala-NH2 (I-1071) (peptide)

- IC50 [5]: < 50 nM
Substance: 1Pyrazole Ac-PL3-Asp-Npg-B5-Asp-3COOHF-Aib-Ala-Phe-Lys*3-PyrS2-3Thi-BztA-GlnR*3-Ala-NH2 (peptide)
